Test results reported in patent publication US8507651B2, “Treatment of diseases and conditions mediated by increased phosphorylation” (DMI Acquisition Corp., priority 2002, dated 2013).

B1: chicken egg yolk phosvitin (dephosphorylated): Phosvitin extracted from the yolks of chicken eggs and dephosphorylated; estimated about 20-50% dephosphorylated (protein, UniProt P02845 1112-1328, looked up)
Phosvitin: AEFGTEPDAKTSSSSSSASSTATSSSSSSASSPNRKKPMDEEENDQVKQARNKDASSSSRSSKSSNSSKRSSSKSSNSSKRSSSSSSSSSSSSRSSSSSSSSSSNSKSSSSSSKSSSSSSRSRSSSKSSSSSSSSSSSSSSKSSSSRSSSSSSKSSSHHSHSHHSGHLNGSSSSSSSSRSVSHHSHEHHSGHLEDDSSSSSSSSVLSKIWGRHEIYQ
modifications: Phosvitin partially dephosphorylated
notes: Phosvitin extracted from the yolks of chicken eggs and dephosphorylated; estimated about 20-50% dephosphorylated
B2: Sigma phosvitin (untreated): Chicken phosvitin purchased from Sigma Chemical Co., used as received without dephosphorylation (protein, UniProt P02845 1112-1328, looked up)
Phosvitin: B1 Phosvitin
modifications: Phosvitin
notes: Chicken phosvitin purchased from Sigma Chemical Co., used as received without dephosphorylation

System: IL-8 release by Jurkat cells
Assay: Inhibition of IL-8 release from PMA/ionomycin-stimulated Jurkat cells, IL-8 ELISA of supernatants (Example 1)
Format: cell-based, human
Conditions: PMA and ionomycin; for IL-8 / Percent Inhibition Of IL-8 Release: 24 hours; for IL-8: positive control 1119.2; for Percent Inhibition Of IL-8 Release: vs positive control; for Inhibition of IL-8 release as compared to the positive control (in words): summary of Table 1
Experimental: Jurkat cells (American Type Culture Collection (ATCC), Rockville, Md.) were cultured (1×10^6 cells per 0.5 ml culture) in IMDM culture medium (ATCC) containing insulin transferrin selenite solution (ITSS; Sigma) with and without phosvitin or BSA at 37° C., 5% CO2, for 30 minutes. Then, phorbol-12-myristate-13-acetate (PMA; […]; Sigma) and ionomycin ([…]; Sigma) were added to stimulate the cells, and the cells were further cultured at 37° C., 5% CO2, for 24 hours.
Cell culture supernatants were analyzed for IL-8 content by ELISA. The IL-8 ELISA was performed as follows. Anti-human IL-8 antibody (Pierce Endogen, Rockford, Ill.; catalogue number M801-E, lot number CK41959) was diluted to 1 μg/ml in phosphate buffered saline, pH 7.2-7.4, and 100 μl of the diluted antibody was added to each well of Nunc Maxisorb ELISA strip plates. The plates were incubated overnight at room temperature. The liquid was aspirated from the wells, and the plates were blotted on a paper towel. Then, 200 μl of assay buffer (phosphate buffered saline, pH 7.2-7.4, containing 4% BSA) were added to each well, and the plates were incubated for 1 hour at room temperature. The liquid was aspirated from the wells, and the wells were washed 3 times with wash buffer (50 mM Tris, 0.2% Tween-20, pH 7.9-8.1) and were then blotted on a paper towel. Standards and supernatant samples (50 μl/well; standards were diluted in assay buffer) were added to the wells, and the plates were incubated for 1 hour at room temperature with gentle shaking. The liquid was aspirated, the wells were washed 3 times with wash buffer, and the plates were then blotted on a paper towel. Then, 100 μl of biotin-labeled anti-human IL-8 (Pierce Endogen, Rockford, Ill.; catalogue number M802-E, lot number CE49513), diluted to 60 ng/ml in assay buffer, were added to each well. The plates were incubated for 1 hour at room temperature, the liquid was aspirated, the wells were washed 3 times with wash buffer, and the plates were blotted on a paper towel. Then, 100 μl of HRP-conjugated streptavidin (Pierce Endogen, Rockford, Ill.; catalogue number N100) in assay buffer, were added to each well. The plates were incubated for 30 minutes at room temperature, the liquid was aspirated, the wells were washed 3 times with wash buffer, and the plates were blotted on a paper towel. Finally, 100 μl of TMB substrate solution (Pierce Endogen, Rockford, Ill.; catalogue number N301) were added to each well. The plates were incubated for 30 minutes at room temperature. The reaction was stopped by adding 100 μl/well of 0.18 M H2SO4. The optical densities at 450 mu and 530 nm were read on an ELISA plate reader and the difference (OD 450-OD 530) calculated.

Molecule | IL-8 (1.0 mg/ml sample) | Percent Inhibition Of IL-8 Release (1.0 mg/ml sample) | Inhibition of IL-8 release as compared to the positive control (in words) | IL-8 (0.1 mg/ml sample) | Percent Inhibition Of IL-8 Release (0.1 mg/ml sample) | IL-8 (0.5 mg/ml sample) | Percent Inhibition Of IL-8 Release (0.5 mg/ml sample)
Sigma BSA (untreated): Bovine serum albumin from Sigma (ELIS grade, low fatty acid and IgG), used as received [reference compound] | 1048.1 pg/mL | 6.3% | did not significantly inhibit the release of IL-8 | – | – | – | –
B1 | 686.9 pg/mL | 38.6% | inhibited IL-8 release as compared to the positive control in a dose-dependent fashion | 1024.7 pg/mL | 6.4% | 830.4 pg/mL | 25.8%
B2 | 1153.6 pg/mL | 0% | did not significantly inhibit the release of IL-8 | – | – | – | –
